The source of these data is EP1577321A1.

The target in this assay is patched (on patched-transfected EBNA-293 cells). Put plainly: FACS competition with Shh-Ig on patched-transfected EBNA-293 cells.

One may read the IC50 as the concentration that gives 50% inhibition. In turn, “soluble human Sonic hedgehog N-terminal fragment (unmodified, produced in E. coli) (from UniProt Q14623 28-201) (ligand)” returned an IC50 of 0.15 µg/mL.
Then “tethered human Sonic hedgehog (N-terminal palmitoyl, C-terminal cholesterol) purified from High Five insect cells (from UniProt Q14623 28-201) (ligand)”, with 0.4 µg/mL.
